This experiment has as its target human IL-18 receptor (alpha and beta subunits) on HEK-BLUE IL-18 reporter cells (human) (UniProt Q13478). In words: cell-based or functional assay.

Sequence of human IL-18 receptor (alpha and beta subunits) on HEK-BLUE IL-18 reporter cells (human) (Q13478 19-541, chain 1 of 2): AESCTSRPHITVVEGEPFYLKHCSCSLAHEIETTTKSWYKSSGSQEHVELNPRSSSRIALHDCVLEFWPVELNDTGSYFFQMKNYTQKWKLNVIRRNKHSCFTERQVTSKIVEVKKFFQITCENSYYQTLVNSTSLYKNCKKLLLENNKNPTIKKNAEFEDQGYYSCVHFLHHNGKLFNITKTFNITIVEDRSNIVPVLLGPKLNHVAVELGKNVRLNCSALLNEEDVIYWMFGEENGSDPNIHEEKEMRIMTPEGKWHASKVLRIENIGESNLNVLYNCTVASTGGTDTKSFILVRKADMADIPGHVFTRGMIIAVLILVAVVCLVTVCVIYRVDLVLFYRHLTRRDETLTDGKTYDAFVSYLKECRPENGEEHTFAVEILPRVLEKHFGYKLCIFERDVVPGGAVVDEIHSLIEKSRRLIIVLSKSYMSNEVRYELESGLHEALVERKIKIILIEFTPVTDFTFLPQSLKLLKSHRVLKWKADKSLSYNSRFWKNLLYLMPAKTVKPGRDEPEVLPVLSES
Sequence of human IL-18 receptor (alpha and beta subunits) on HEK-BLUE IL-18 reporter cells (human) (O95256 20-599, chain 2 of 2, further chain): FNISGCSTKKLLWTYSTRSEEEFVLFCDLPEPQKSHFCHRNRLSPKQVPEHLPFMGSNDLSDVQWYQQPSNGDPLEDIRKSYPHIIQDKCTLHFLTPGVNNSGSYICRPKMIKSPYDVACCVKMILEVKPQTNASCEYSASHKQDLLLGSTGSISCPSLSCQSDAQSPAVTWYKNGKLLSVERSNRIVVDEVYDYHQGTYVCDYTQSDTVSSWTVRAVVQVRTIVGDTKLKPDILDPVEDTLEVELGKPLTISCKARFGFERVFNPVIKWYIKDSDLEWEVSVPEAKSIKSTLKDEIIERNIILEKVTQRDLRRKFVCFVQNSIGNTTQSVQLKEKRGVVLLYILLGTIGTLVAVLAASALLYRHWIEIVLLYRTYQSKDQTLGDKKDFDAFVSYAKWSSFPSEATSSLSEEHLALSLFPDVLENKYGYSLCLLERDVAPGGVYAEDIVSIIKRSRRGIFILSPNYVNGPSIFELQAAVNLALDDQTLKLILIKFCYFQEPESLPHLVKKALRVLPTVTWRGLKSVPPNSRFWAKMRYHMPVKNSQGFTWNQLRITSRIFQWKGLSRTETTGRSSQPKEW

In turn, “Human recombinant IL-18 (R&D Systems #9124-IL-050/CF) (from UniProt Q14116 1-193) (ligand)” gave an EC50, NF-κB reporter activity in HEK-BLUE IL-18 cells of 0.38 pM.

These data come from patent publication US20240158457A1, “INTERLEUKIN-18 RECEPTOR BINDING POLYPEPTIDES AND USES THEREOF” (Medikine, Inc., priority 2022, published 2024).
